Assay results from US20190309059A1 (SHANGHAI PHARMAEXPLORER, published 2019).

Tests used:
[1] = target: his-labeled human IL-13 (immunogen A) (human) (UniProt P35225); experiment: cell-based or functional assay
[2] = target: cynomolgus IL-13 (purchased from sino biological) (cynomolgus) (UniProt Q0PW92); experiment: ELISA, cynomolgus IL-13; antibody at 0.53 nM
[3] = target: cynomolgus IL-13 (purchased from sino biological) (cynomolgus) (UniProt Q0PW92); experiment: ELISA, cynomolgus IL-13; antibody at 2.67 nM
[4] = target: cynomolgus IL-13 (purchased from sino biological) (cynomolgus) (UniProt Q0PW92); experiment: ELISA, cynomolgus IL-13; antibody at 0.004 nM
[5] = target: cynomolgus IL-13 (purchased from sino biological) (cynomolgus) (UniProt Q0PW92); experiment: ELISA, cynomolgus IL-13; antibody at 0.021 nM
[6] = target: cynomolgus IL-13 (purchased from sino biological) (cynomolgus) (UniProt Q0PW92); experiment: ELISA, cynomolgus IL-13; antibody at 0.107 nM
[7] = target: his-labeled human IL-13 (immunogen A) (human) (UniProt P35225); experiment: ELISA, biotin-immunogen A; antibody at 0.11 nM
[8] = target: his-labeled human IL-13 (immunogen A) (human) (UniProt P35225); experiment: ELISA, biotin-immunogen A; antibody at 0.53 nM
[9] = target: his-labeled human IL-13 (immunogen A) (human) (UniProt P35225); experiment: ELISA, biotin-immunogen A; antibody at 2.67 nM
[10] = target: his-labeled human IL-13 (immunogen A) (human) (UniProt P35225); experiment: ELISA, biotin-immunogen A; antibody at 13.33 nM
[11] = target: his-labeled human IL-13 (immunogen A) (human) (UniProt P35225); experiment: FACS blocking, biotin-IL-13 on IL-13Ra2 HEK293 cells; antibody at 0.01 nM
[12] = target: his-labeled human IL-13 (immunogen A) (human) (UniProt P35225); experiment: FACS blocking, biotin-IL-13 on IL-13Ra2 HEK293 cells; antibody at 0.05 nM
[13] = target: his-labeled human IL-13 (immunogen A) (human) (UniProt P35225); experiment: FACS blocking, biotin-IL-13 on IL-13Ra2 HEK293 cells; antibody at 0.27 nM
[14] = target: his-labeled human IL-13 (immunogen A) (human) (UniProt P35225); experiment: FACS blocking, biotin-IL-13 on IL-13Ra2 HEK293 cells; antibody at 1.33 nM
[15] = target: his-labeled human IL-13 (immunogen A) (human) (UniProt P35225); experiment: FACS blocking, biotin-IL-13 on IL-13Ra2 HEK293 cells; antibody at 6.67 nM
[16] = target: his-labeled human IL-13 (immunogen A) (human) (UniProt P35225); experiment: ELISA, biotin-immunogen A; antibody at 0.00 nM (6th dilution)
[17] = target: his-labeled human IL-13 (immunogen A) (human) (UniProt P35225); experiment: FACS blocking, biotin-IL-13 on IL-13Ra2 HEK293 cells; antibody at 0.002 nM
[18] = target: his-labeled human IL-13 (immunogen A) (human) (UniProt P35225); experiment: FACS blocking, biotin-IL-13 on IL-13Ra2 HEK293 cells; antibody at 33.33 nM
[19] = target: his-labeled human IL-13 (immunogen A) (human) (UniProt P35225); experiment: FACS blocking, biotin-IL-13 on IL-13Ra2 HEK293 cells; antibody at 166.67 nM
[20] = target: his-labeled human IL-13 (immunogen A) (human) (UniProt P35225); experiment: FACS blocking, biotin-IL-13 on IL-13Ra1/IL-4Ra HEK293 cells; antibody at 0.01 nM
[21] = target: his-labeled human IL-13 (immunogen A) (human) (UniProt P35225); experiment: FACS blocking, biotin-IL-13 on IL-13Ra1/IL-4Ra HEK293 cells; antibody at 0.05 nM
[22] = target: his-labeled human IL-13 (immunogen A) (human) (UniProt P35225); experiment: FACS blocking, biotin-IL-13 on IL-13Ra1/IL-4Ra HEK293 cells; antibody at 0.27 nM
[23] = target: his-labeled human IL-13 (immunogen A) (human) (UniProt P35225); experiment: FACS blocking, biotin-IL-13 on IL-13Ra1/IL-4Ra HEK293 cells; antibody at 1.33 nM
[24] = target: his-labeled human IL-13 (immunogen A) (human) (UniProt P35225); experiment: FACS blocking, biotin-IL-13 on IL-13Ra1/IL-4Ra HEK293 cells; antibody at 6.67 nM
[25] = target: his-labeled human IL-13 (immunogen A) (human) (UniProt P35225); experiment: FACS blocking, biotin-IL-13 on IL-13Ra1/IL-4Ra HEK293 cells; antibody at 0.002 nM
[26] = target: his-labeled human IL-13 (immunogen A) (human) (UniProt P35225); experiment: FACS blocking, biotin-IL-13 on IL-13Ra1/IL-4Ra HEK293 cells; antibody at 33.33 nM
[27] = target: his-labeled human IL-13 (immunogen A) (human) (UniProt P35225); experiment: FACS blocking, biotin-IL-13 on IL-13Ra1/IL-4Ra HEK293 cells; antibody at 166.67 nM
[28] = target: his-labeled human IL-13R130Q variant (human) (UniProt P35225); experiment: ELISA: IL-13R130Q variant on the plate, antibody titrated, HRP secondary antibody, OD450
his-labeled human IL-13R130Q variant (human), sequence (P35225 other isoform, or with tags, fused parts or gaps mutant): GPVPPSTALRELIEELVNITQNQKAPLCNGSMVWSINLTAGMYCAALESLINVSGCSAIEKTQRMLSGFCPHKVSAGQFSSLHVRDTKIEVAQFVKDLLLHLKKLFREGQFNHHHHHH

cynomolgus IL-13 (purchased from sino biological) (cynomolgus), sequence (Q0PW92 entry or part of it): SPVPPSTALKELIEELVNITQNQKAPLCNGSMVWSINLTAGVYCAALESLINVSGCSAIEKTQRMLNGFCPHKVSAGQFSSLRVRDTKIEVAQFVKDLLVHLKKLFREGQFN

B1: c35E2C3 (mouse-human chimeric IL-13 antibody) (antibody, V domains shown)
VH: EVQLQESGPGLAKPSQTLSLTCSVTGYSITSDYWNWIRKFPGNKLEYMGYISYNGNTYYNPSLKSQISITRDTSKNQLYLQLKSATTEDTATYYCARLAKWTWYFDIWGTGTTVTVSS
VL: DIQMNQSPSSLSASLGDTITITCHASQNINVWLSWYQQKPGSLPKLLIYKASDLHTGVPSRFSGSGSGTGFTLTISSLQPEDIATYYCQQGQSYPYTFGGGTKLEIK
B1 was tested, and the Periostin (pg/mL), MRCS cells + IL-13 5 ng/mL; antibody at 0.0002 nM [1] was 7100 pg/mL, the Periostin (pg/mL), MRCS cells + IL-13 5 ng/mL; antibody at 0.001 nM [1] was 6020 pg/mL and the Periostin (pg/mL), MRCS cells + IL-13 5 ng/mL; antibody at 0.004 nM [1] was 4870 pg/mL. The Periostin (pg/mL), MRCS cells + IL-13 5 ng/mL; antibody at 0.021 nM [1] was 4480 pg/mL, the Periostin (pg/mL), MRCS cells + IL-13 5 ng/mL; antibody at 0.11 nM [1] was 4360 pg/mL and the Periostin (pg/mL), MRCS cells + IL-13 5 ng/mL; antibody at 0.53 nM [1] was 4460 pg/mL. It also gave a Periostin (pg/mL), MRCS cells + IL-13 5 ng/mL; antibody at 2.67 nM [1] of 2850 pg/mL, a Periostin (pg/mL), MRCS cells + IL-13 5 ng/mL; antibody at 13.3 nM [1] of 1350 pg/mL and a TARC (pg/mL), A549 cells + IL-13 + TNFα; antibody at 0.001 nM [1] of 3200 pg/mL. For the same binder, the TARC (pg/mL), A549 cells + IL-13 + TNFα; antibody at 0.004 nM [1] was 3150 pg/mL, the TARC (pg/mL), A549 cells + IL-13 + TNFα; antibody at 0.021 nM [1] was 3040 pg/mL and the TARC (pg/mL), A549 cells + IL-13 + TNFα; antibody at 0.11 nM [1] was 2610 pg/mL. The TARC (pg/mL), A549 cells + IL-13 + TNFα; antibody at 0.53 nM [1] was 2370 pg/mL, the TARC (pg/mL), A549 cells + IL-13 + TNFα; antibody at 2.67 nM [1] was 1090 pg/mL and the TARC (pg/mL), A549 cells + IL-13 + TNFα; antibody at 13.3 nM [1] was 227 pg/mL. The TARC (pg/mL), A549 cells + IL-13 + TNFα; antibody at 66.7 nM [1] was 54 pg/mL, the VCAM-1 fluorescence intensity, HUVEC + IL-13 0.5 ng/mL + TNFα; antibody at 0.0002 nM [1] was 408 and the VCAM-1 fluorescence intensity, HUVEC + IL-13 0.5 ng/mL + TNFα; antibody at 0.001 nM [1] was 402. For the same binder, the VCAM-1 fluorescence intensity, HUVEC + IL-13 0.5 ng/mL + TNFα; antibody at 0.004 nM [1] was 452, the VCAM-1 fluorescence intensity, HUVEC + IL-13 0.5 ng/mL + TNFα; antibody at 0.021 nM [1] was 408 and the VCAM-1 fluorescence intensity, HUVEC + IL-13 0.5 ng/mL + TNFα; antibody at 0.11 nM [1] was 313. It also gave a VCAM-1 fluorescence intensity, HUVEC + IL-13 0.5 ng/mL + TNFα; antibody at 0.53 nM [1] of 299, a VCAM-1 fluorescence intensity, HUVEC + IL-13 0.5 ng/mL + TNFα; antibody at 2.67 nM [1] of 238 and a VCAM-1 fluorescence intensity, HUVEC + IL-13 0.5 ng/mL + TNFα; antibody at 13.3 nM [1] of 165. The OD450 nm [2] was 0.59, the OD450 nm [3] was 1.63 and the OD450 nm [4] was 0.061. It also gave an OD450 nm [5] of 0.136, an OD450 nm [6] of 0.181 and an OD450 nm [7] of 0.59. The OD450 nm [8] was 1.63, the OD450 nm [9] was 2.4 and the OD450 nm [10] was 2.59. It also gave a mean fluorescence intensity [11] of 98.1, a mean fluorescence intensity [12] of 90 and a mean fluorescence intensity [13] of 63.8. The mean fluorescence intensity [14] was 29, the mean fluorescence intensity [15] was 22.2 and the OD450 nm [16] was 0.09. For the same binder, the mean fluorescence intensity [17] was 99.1, the mean fluorescence intensity [18] was 20.3 and the mean fluorescence intensity [19] was 19.3. For the same binder, the mean fluorescence intensity [20] was 96.8, the mean fluorescence intensity [21] was 96.7 and the mean fluorescence intensity [22] was 81.5. It also gave a mean fluorescence intensity [23] of 33.1, a mean fluorescence intensity [24] of 19.5 and a mean fluorescence intensity [25] of 102. The mean fluorescence intensity [26] was 19.6, the mean fluorescence intensity [27] was 18.7 and the EC50 (read off the curve) [28] was 0.3 nM.
